Experimental data from paper PMC9896810.
Changes are numbered by the printed parent chain. Numbers in names are those of the source.

Legend:
[1] = target: C3G-AAPA (human), Q13905; assay: ITC; single-PRM mutants of C3G in the cell titrated with full-length CrkL or CrkL-SH3N; 25 °C; 1:1 model in SEDPHAT; N is the competent fraction of C3G
[2] = target: C3G-AAPA (human), Q13905
[3] = target: Src-phosphorylated C3G-AAAP (pC3G-AAAP) (human), Q13905
[4] = target: Src-phosphorylated C3G-AAPP (pC3G-AAPP) (human), Q13905
[5] = target: Src-phosphorylated C3G-AAPA (pC3G-AAPA) (human), Q13905
[6] = target: C3G-AAPP (human), Q13905
[7] = target: C3G-AAAP (human), Q13905; assay: ITC; single-PRM mutants of C3G in the cell titrated with full-length CrkL or CrkL-SH3N; 25 °C; 1:1 model in SEDPHAT; N is the competent fraction of C3G
[8] = target: GST-CrkL-SH3N; assay: pull-down; conditions: chain shown with the change; PD with GST-CrkL-SH3N, C3G detected by western blot (WB:C3G); parent: 1.0
[9] = target: GST-CrkL-SH3N; assay: pull-down; conditions: chain shown with the change, PD with GST-CrkL-SH3N, C3G detected by western blot (WB:C3G), parent: 1.0

B1: CrkL-SH3N (residues 125-182), P46109 125-182 (domain or fragment)
chain: LEYVRTLYDFPGNDAEDLPFKKGEILVIIEKPEEQWWSARNKDGRVGMIPVPYVEKLV
**Q.** What does the source list for B1?
**A.** Kd [1]: 3.5 µM; stoichiometry N [1]: 0.2

B2: CrkL, full-length (human), P46109 1-303 (natural protein)
chain: MSSARFDSSDRSAWYMGPVSRQEAQTRLQGQRHGMFLVRDSSTCPGDYVLSVSENSRVSHYIINSLPNRRFKIGDQEFDHLPALLEFYKIHYLDTTTLIEPAPRYPSPPMGSVSAPNLPTAEDNLEYVRTLYDFPGNDAEDLPFKKGEILVIIEKPEEQWWSARNKDGRVGMIPVPYVEKLVRSSPHGKHGNRNSNSYGIPEPAHAYAQPQTTTPLPAVSGSPGAAITPLPSTQNGPVFAKAIQKRVPCAYDKTALALEVGDIVKVTRMNINGQWEGEVNGRKGLFPFTHVKIFDPQNPDENE
**Q.** For B2, which AC50 of the dose-response activation of the GEF activity of C3G (1 µM) on Rap1b:mant-dGDP [2] is on record?
**A.** 28.1 µM

**Q.** And the kmax of the dose-response activation of the GEF activity of C3G (1 µM) on Rap1b:mant-dGDP [2]?
**A.** 9100 M⁻¹ s⁻¹

**Q.** And the AC50 of the dose-response activation of the GEF activity of pC3G (0.2 µM) on Rap1b:mant-dGDP; the text says that pC3G-AAAP was not stimulated by CrkL [3]?
**A.** 0.6 µM

**Q.** What about the kmax of the dose-response activation of the GEF activity of pC3G (0.2 µM) on Rap1b:mant-dGDP; the text says that pC3G-AAAP was not stimulated by CrkL [3] of the same binder?
**A.** 0.0045 s^-1 µM^-1

**Q.** And the AC50 of the dose-response activation of the GEF activity of pC3G (0.2 µM) on Rap1b:mant-dGDP [4]?
**A.** 2.2 µM

**Q.** And the kmax of the dose-response activation of the GEF activity of pC3G (0.2 µM) on Rap1b:mant-dGDP [4]?
**A.** 0.0357 s^-1 µM^-1

**Q.** What about the AC50 of the dose-response activation of the GEF activity of pC3G (0.2 µM) on Rap1b:mant-dGDP [5] of the same binder?
**A.** 1.3 µM

**Q.** What about the kmax of the dose-response activation of the GEF activity of pC3G (0.2 µM) on Rap1b:mant-dGDP [5] of the same binder?
**A.** 0.0269 s^-1 µM^-1

**Q.** What about the AC50 of the dose-response activation of the GEF activity of C3G (1 µM) on Rap1b:mant-dGDP [6] of the same binder?
**A.** 23.7 µM

**Q.** And the kmax of the dose-response activation of the GEF activity of C3G (1 µM) on Rap1b:mant-dGDP [6]?
**A.** 13600 M⁻¹ s⁻¹

**Q.** What about the Kd [7] of the same binder?
**A.** 2 µM

**Q.** What about the stoichiometry N [7] of the same binder?
**A.** 0.55

**Q.** And the Kd [1]?
**A.** 2 µM

**Q.** And the stoichiometry N [1]?
**A.** 0.13

B3: C3G (full-length, residues 4-1077), Q13905-1 P283A; P284A; L286A; P287A; K289A; P453A; P454A; L456A; P457A; K459A; P540A; P541A; L543A; P544A; K546A (protein)
chain: DSQRSHLSSFTMKLMDKFHSPKIKRTPSKKGKPAEVSVKIPEKPVNKEATDRFLPEGYPLPLDLEQQAVEFMSTSAVASRSQRQKNLSWLEEKEKEVVSALRYFKTIVDKMAIDKKVLEMLPGSASKVLEAILPLVQNDPRIQHSSALSSCYSRVYQSLANLIRWSDQVMLEGVNSEDKEMVTTVKGVIKAVLDGVKELVRLTIEKQGRPSPTSPVKPSSPASKPDGPAELPLTDREVEILNKTTGMSQSTELLPDATDEEVAPPKPPLPGIRVVDNSPAAAAAPAKRQSAPSPTRVAVVAPMSRATSGSSLPVGINRQDFDVDCYAQRRLSGGSHSYGGESPRLSPCSSIGKLSKSDEQLSSLDRDSGQCSRNTSCETLDHYDPDYEFLQQDLSNADQIPQQTAWNLSPLPESLGESGSPFLGPPFQLPLGGHPQPDGPLAPGQQTDTAAAAAEAKRRSAASQTADGSGCRVSYERHPSQYDNISGEDLQSTAPIPSVPYAPFAAILPFQHGGSSAPVEFVGDFTAPESTGDPEKAAPAAEAKNKHMLAYMQLLEDYSEPQPSMFYQTPQNEHIYQQKNKLLMEVYGFSDSFSGVDSVQELAPPPALPPKQRQLEPPAGKDGHPRDPSAVSGVPGKDSRDGSERAPKSPDALESAQSEEEVDELSLIDHNEIMSRLTLKQEGDDGPDVRGGSGDILLVHATETDRKDLVLYCEAFLTTYRTFISPEELIKKLQYRYEKFSPFADTFKKRVSKNTFFVLVRVVDELCLVELTEEILKLLMELVFRLVCNGELSLARVLRKNILDKVDQKKLLRCATSSQPLAARGVAARPGTLHDFHSHEIAEQLTLLDAELFYKIEIPEVLLWAKEQNEEKSPNLTQFTEHFNNMSYWVRSIIMLQEKAQDRERLLLKFIKIMKHLRKLNNFNSYLAILSALDSAPIRRLEWQKQTSEGLAEYCTLIDSSSSFRAYRAALSEVEPPCIPYLGLILQDLTFVHLGNPDYIDGKVNFSKRWQQFNILDSMRCFQQAHYDMRRNDDIINFFNDFSDHLAEEALWELSLKIKPRNITRRKTDREEKT
**Q.** For B3, which ratio to parent [8] is on record?
**A.** 0.3

**Q.** What about the ratio to parent ([9]; C3G-AAAP phosphorylated by Src (phospho AAAP)) of the same binder?
**A.** 0.4

**Q.** What about the ratio to parent [9] of the same binder?
**A.** 0.4

B4: C3G (full-length, residues 4-1077), Q13905-1 P283A; P284A; L286A; P287A; K289A; P453A; P454A; L456A; P457A; K459A; P608A; P609A; L611A; P612A; K614A (protein)
chain: B3 chain with A537P, A538P, A540L, A541P, A543K, P605A, P606A, L608A, P609A, K611A
**Q.** Which ratio to parent ([9]; C3G-AAPA phosphorylated by Src (phospho AAPA)) does the source give for B4 here?
**A.** 0.3

B5: C3G (full-length, residues 4-1077), Q13905-1 P283A; P284A; L286A; P287A; K289A; P540A; P541A; L543A; P544A; K546A; P608A; P609A; L611A; P612A; K614A (protein)
chain: B3 chain with A450P, A451P, A453L, A454P, A456K, P605A, P606A, L608A, P609A, K611A
**Q.** With B5 as the binder, how does the ratio to parent [8] read?
**A.** 0.4

B6: C3G (full-length, residues 4-1077), Q13905-1 P283A; P284A; L286A; P287A; K289A; P453A; P454A; L456A; P457A; K459A; P540A; P541A; L543A; P544A; K546A; Y554H (protein)
chain: B3 chain with Y551H
**Q.** Which ratio to parent [9] does the source give for B6 here?
**A.** 0.4
